Reference: US20120172293A1 (Takeda / Millennium, published 2012)
Starred links: 1 amine or outer side, 2 acyl side, 3 side chain; linkers in the order of their positions; H or OH if unused. Non-standard residues stand in square brackets, D forms with d. No end group written: not given here. *: point of attachment. Asn(Me) = N-omega-methylasparagine, CNC(=O)C[C@H](N[*:1])C(=O)[*:2]; 4‑guanidinomethylbenzoyl = N=C(N)NCc1ccc(C(=O)*)cc1; Tyr(3-F) = N[C@@H](Cc1ccc(O)c(F)c1)C(=O)O; Phe(4-NH2) = Nc1ccc(C[C@H](N)C(=O)O)cc1; Tyr(2-F) = N[C@@H](Cc1ccc(O)cc1F)C(=O)O; Phe(4-F) = N[C@@H](Cc1ccc(F)cc1)C(=O)O; Cyclohexanecarbonyl = O=C(C1CCCCC1)*; Ala(cPr) = N[C@@H](CC1CC1)C(=O)O; tBuAla = CC(C)(C)C[C@H](N)C(=O)O; 3Pal = N[C@@H](Cc1cccnc1)C(=O)O; 4Pal = N[C@@H](Cc1ccncc1)C(=O)O; Cha = N[C@@H](CC1CCCCC1)C(=O)O; dCha = N[C@H](CC1CCCCC1)C(=O)O; Isobutyryl = CC(C)C(=O)*; Nle = CCCC[C@H](N)C(=O)O; Abu = CC[C@H](N)C(=O)O; Aib = CC(C)(N)C(=O)O; Bz = O=C(c1ccccc1)*

B1: Cyclohexanecarbonyl-[Cha27,36, Ala(cPr)28, Aib31]-PYY(25-36) (peptide)
peptide: Cyclohexanecarbonyl-RH[Cha][Ala(cPr)]NL[Aib]TRQR[Cha]-NH2
SMILES: CC(C)C[C@H](NC(=O)[C@H](CC(N)=O)NC(=O)[C@H](CC1CC1)NC(=O)[C@H](CC1CCCCC1)NC(=O)[C@H](Cc1c[nH]cn1)NC(=O)[C@H](CCCNC(=N)N)NC(=O)C1CCCCC1)C(=O)NC(C)(C)C(=O)N[C@H](C(=O)N[C@@H](CCCNC(=N)N)C(=O)N[C@@H](CCC(N)=O)C(=O)N[C@@H](CCCNC(=N)N)C(=O)N[C@@H](CC1CCCCC1)C(N)=O)[C@@H](C)O
B2: Isobutanoyl-[Abu26, Cha27,36, Pya(4)28, Aib31]-PYY(25-36) (peptide)
peptide: Isobutyryl-R[Abu][Cha][4Pal]NL[Aib]TRQR[Cha]-NH2
SMILES: CC[C@H](NC(=O)[C@H](CCCNC(=N)N)NC(=O)C(C)C)C(=O)N[C@@H](CC1CCCCC1)C(=O)N[C@@H](Cc1ccncc1)C(=O)N[C@@H](CC(N)=O)C(=O)N[C@@H](CC(C)C)C(=O)NC(C)(C)C(=O)N[C@H](C(=O)N[C@@H](CCCNC(=N)N)C(=O)N[C@@H](CCC(N)=O)C(=O)N[C@@H](CCCNC(=N)N)C(=O)N[C@@H](CC1CCCCC1)C(N)=O)[C@@H](C)O
B3: Ac-[D-Cha24, Abu26, Cha27,28,36, Aib31]-PYY(24-36) (peptide)
peptide: Ac-[dCha]R[Abu][Cha][Cha]NL[Aib]TRQR[Cha]-NH2
SMILES: CC[C@H](NC(=O)[C@H](CCCNC(=N)N)NC(=O)[C@@H](CC1CCCCC1)NC(C)=O)C(=O)N[C@@H](CC1CCCCC1)C(=O)N[C@@H](CC1CCCCC1)C(=O)N[C@@H](CC(N)=O)C(=O)N[C@@H](CC(C)C)C(=O)NC(C)(C)C(=O)N[C@H](C(=O)N[C@@H](CCCNC(=N)N)C(=O)N[C@@H](CCC(N)=O)C(=O)N[C@@H](CCCNC(=N)N)C(=O)N[C@@H](CC1CCCCC1)C(N)=O)[C@@H](C)O
B4: Cyclohexanecarbonyl-[Nle26, Cha27,28,36, Aib31]-PYY(25-36) (peptide)
peptide: Cyclohexanecarbonyl-R[Nle][Cha][Cha]NL[Aib]TRQR[Cha]-NH2
SMILES: CCCC[C@H](NC(=O)[C@H](CCCNC(=N)N)NC(=O)C1CCCCC1)C(=O)N[C@@H](CC1CCCCC1)C(=O)N[C@@H](CC1CCCCC1)C(=O)N[C@@H](CC(N)=O)C(=O)N[C@@H](CC(C)C)C(=O)NC(C)(C)C(=O)N[C@H](C(=O)N[C@@H](CCCNC(=N)N)C(=O)N[C@@H](CCC(N)=O)C(=O)N[C@@H](CCCNC(=N)N)C(=O)N[C@@H](CC1CCCCC1)C(N)=O)[C@@H](C)O
B5: Isobutanoyl-[Abu26, Cha27,28,36, Ala(cPr)30, Aib31]-PYY(25-36) (peptide)
peptide: Isobutyryl-R[Abu][Cha][Cha]N[Ala(cPr)][Aib]TRQR[Cha]-NH2
SMILES: CC[C@H](NC(=O)[C@H](CCCNC(=N)N)NC(=O)C(C)C)C(=O)N[C@@H](CC1CCCCC1)C(=O)N[C@@H](CC1CCCCC1)C(=O)N[C@@H](CC(N)=O)C(=O)N[C@@H](CC1CC1)C(=O)NC(C)(C)C(=O)N[C@H](C(=O)N[C@@H](CCCNC(=N)N)C(=O)N[C@@H](CCC(N)=O)C(=O)N[C@@H](CCCNC(=N)N)C(=O)N[C@@H](CC1CCCCC1)C(N)=O)[C@@H](C)O
B6: Isobutanoyl-[Abu26, Cha27,28, Aib31, Tyr(2F)36]-PYY(25-36) (peptide)
peptide: Isobutyryl-R[Abu][Cha][Cha]NL[Aib]TRQR[Tyr(2-F)]-NH2
SMILES: CC[C@H](NC(=O)[C@H](CCCNC(=N)N)NC(=O)C(C)C)C(=O)N[C@@H](CC1CCCCC1)C(=O)N[C@@H](CC1CCCCC1)C(=O)N[C@@H](CC(N)=O)C(=O)N[C@@H](CC(C)C)C(=O)NC(C)(C)C(=O)N[C@H](C(=O)N[C@@H](CCCNC(=N)N)C(=O)N[C@@H](CCC(N)=O)C(=O)N[C@@H](CCCNC(=N)N)C(=O)N[C@@H](Cc1ccc(O)cc1F)C(N)=O)[C@@H](C)O
B7: Isobutanoyl-[Abu26, Cha27,28, Aib31, Tyr(3F)36]-PYY(25-36) (peptide)
peptide: Isobutyryl-R[Abu][Cha][Cha]NL[Aib]TRQR[Tyr(3-F)]-NH2
SMILES: CC[C@H](NC(=O)[C@H](CCCNC(=N)N)NC(=O)C(C)C)C(=O)N[C@@H](CC1CCCCC1)C(=O)N[C@@H](CC1CCCCC1)C(=O)N[C@@H](CC(N)=O)C(=O)N[C@@H](CC(C)C)C(=O)NC(C)(C)C(=O)N[C@H](C(=O)N[C@@H](CCCNC(=N)N)C(=O)N[C@@H](CCC(N)=O)C(=O)N[C@@H](CCCNC(=N)N)C(=O)N[C@@H](Cc1ccc(O)c(F)c1)C(N)=O)[C@@H](C)O
B8: [D-Ser23, Abu26, Cha27,28,36, Aib31]-PYY(23-36) (peptide)
peptide: [dS]LR[Abu][Cha][Cha]NL[Aib]TRQR[Cha]-NH2
modifications: N-terminus assumed
SMILES: CC[C@H](NC(=O)[C@H](CCCNC(=N)N)NC(=O)[C@H](CC(C)C)NC(=O)[C@H](N)CO)C(=O)N[C@@H](CC1CCCCC1)C(=O)N[C@@H](CC1CCCCC1)C(=O)N[C@@H](CC(N)=O)C(=O)N[C@@H](CC(C)C)C(=O)NC(C)(C)C(=O)N[C@H](C(=O)N[C@@H](CCCNC(=N)N)C(=O)N[C@@H](CCC(N)=O)C(=O)N[C@@H](CCCNC(=N)N)C(=O)N[C@@H](CC1CCCCC1)C(N)=O)[C@@H](C)O
B9: Isobutanoyl-[Abu26, Cha27,28,36, Pya(3)31]-PYY(25-36) (peptide)
peptide: Isobutyryl-R[Abu][Cha][Cha]NL[3Pal]TRQR[Cha]-NH2
SMILES: CC[C@H](NC(=O)[C@H](CCCNC(=N)N)NC(=O)C(C)C)C(=O)N[C@@H](CC1CCCCC1)C(=O)N[C@@H](CC1CCCCC1)C(=O)N[C@@H](CC(N)=O)C(=O)N[C@@H](CC(C)C)C(=O)N[C@@H](Cc1cccnc1)C(=O)N[C@H](C(=O)N[C@@H](CCCNC(=N)N)C(=O)N[C@@H](CCC(N)=O)C(=O)N[C@@H](CCCNC(=N)N)C(=O)N[C@@H](CC1CCCCC1)C(N)=O)[C@@H](C)O
B10: 4-Guanidinomethylbenzoyl-[Nle25, Cha27,28,31,36, Arg30]-PYY(25-36) (peptide)
peptide: {4‑guanidinomethylbenzoyl}-[Nle]H[Cha][Cha]NR[Cha]TRQR[Cha]-NH2
SMILES: CCCC[C@H](NC(=O)c1ccc(CNC(=N)N)cc1)C(=O)N[C@@H](Cc1c[nH]cn1)C(=O)N[C@@H](CC1CCCCC1)C(=O)N[C@@H](CC1CCCCC1)C(=O)N[C@@H](CC(N)=O)C(=O)N[C@@H](CCCNC(=N)N)C(=O)N[C@@H](CC1CCCCC1)C(=O)N[C@H](C(=O)N[C@@H](CCCNC(=N)N)C(=O)N[C@@H](CCC(N)=O)C(=O)N[C@@H](CCCNC(=N)N)C(=O)N[C@@H](CC1CCCCC1)C(N)=O)[C@@H](C)O
B11: Isobutanoyl-[Abu26, Cha27,28,36, Leu(Me)30, Aib31]-PYY(25-36) (peptide)
peptide: Isobutyryl-R[Abu][Cha][Cha]N[tBuAla][Aib]TRQR[Cha]-NH2
SMILES: CC[C@H](NC(=O)[C@H](CCCNC(=N)N)NC(=O)C(C)C)C(=O)N[C@@H](CC1CCCCC1)C(=O)N[C@@H](CC1CCCCC1)C(=O)N[C@@H](CC(N)=O)C(=O)N[C@@H](CC(C)(C)C)C(=O)NC(C)(C)C(=O)N[C@H](C(=O)N[C@@H](CCCNC(=N)N)C(=O)N[C@@H](CCC(N)=O)C(=O)N[C@@H](CCCNC(=N)N)C(=O)N[C@@H](CC1CCCCC1)C(N)=O)[C@@H](C)O
B12: Cyclohexanecarbonyl-[Cha27,36, Ile28,31, Asn(Me)29]-PYY(25-36) (peptide)
peptide: Cyclohexanecarbonyl-RH[Cha]I[Asn(Me)]LITRQR[Cha]-NH2
SMILES: CC[C@H](C)[C@H](NC(=O)[C@H](CC1CCCCC1)NC(=O)[C@H](Cc1c[nH]cn1)NC(=O)[C@H](CCCNC(=N)N)NC(=O)C1CCCCC1)C(=O)N[C@@H](CC(=O)NC)C(=O)N[C@@H](CC(C)C)C(=O)N[C@H](C(=O)N[C@H](C(=O)N[C@@H](CCCNC(=N)N)C(=O)N[C@@H](CCC(N)=O)C(=O)N[C@@H](CCCNC(=N)N)C(=O)N[C@@H](CC1CCCCC1)C(N)=O)[C@@H](C)O)[C@@H](C)CC
B13: Isobutanoyl-[Abu26, Cha27,36, Phe(4F)28, Aib31]-PYY(25-36) (peptide)
peptide: Isobutyryl-R[Abu][Cha][Phe(4-F)]NL[Aib]TRQR[Cha]-NH2
SMILES: CC[C@H](NC(=O)[C@H](CCCNC(=N)N)NC(=O)C(C)C)C(=O)N[C@@H](CC1CCCCC1)C(=O)N[C@@H](Cc1ccc(F)cc1)C(=O)N[C@@H](CC(N)=O)C(=O)N[C@@H](CC(C)C)C(=O)NC(C)(C)C(=O)N[C@H](C(=O)N[C@@H](CCCNC(=N)N)C(=O)N[C@@H](CCC(N)=O)C(=O)N[C@@H](CCCNC(=N)N)C(=O)N[C@@H](CC1CCCCC1)C(N)=O)[C@@H](C)O
B14: Benzoyl-[Cha27,36, Ile28,31, Phe(4NH2)30]-PYY(25-36) (peptide)
peptide: Bz-RH[Cha]IN[Phe(4-NH2)]ITRQR[Cha]-NH2
SMILES: CC[C@H](C)[C@H](NC(=O)[C@H](CC1CCCCC1)NC(=O)[C@H](Cc1c[nH]cn1)NC(=O)[C@H](CCCNC(=N)N)NC(=O)c1ccccc1)C(=O)N[C@@H](CC(N)=O)C(=O)N[C@@H](Cc1ccc(N)cc1)C(=O)N[C@H](C(=O)N[C@H](C(=O)N[C@@H](CCCNC(=N)N)C(=O)N[C@@H](CCC(N)=O)C(=O)N[C@@H](CCCNC(=N)N)C(=O)N[C@@H](CC1CCCCC1)C(N)=O)[C@@H](C)O)[C@@H](C)CC

Each binder was assayed against human Y2 receptor (human) (UniProt P49146) (assay: cell-based or functional assay).
Chain of human Y2 receptor (human) (P49146 whole entry): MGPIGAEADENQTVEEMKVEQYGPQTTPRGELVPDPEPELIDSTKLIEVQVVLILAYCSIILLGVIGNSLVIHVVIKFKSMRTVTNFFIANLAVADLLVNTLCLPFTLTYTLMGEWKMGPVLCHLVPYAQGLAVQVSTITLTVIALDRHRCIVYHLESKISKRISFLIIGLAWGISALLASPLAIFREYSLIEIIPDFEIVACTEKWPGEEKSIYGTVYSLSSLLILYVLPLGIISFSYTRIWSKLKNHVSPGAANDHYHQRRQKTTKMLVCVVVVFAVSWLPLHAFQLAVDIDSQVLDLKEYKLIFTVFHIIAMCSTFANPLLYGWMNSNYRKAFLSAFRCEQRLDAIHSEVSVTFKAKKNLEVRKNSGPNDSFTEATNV

Binder | GBA EC50 Ratio (vs PYY(3-36)), [35S]GTPγS
B1 | 23
B2 | 22
B3 | 13
B4 | 33
B5 | 12
B6 | 11
B7 | 20
B8 | 11
B9 | 19
B10 | 4.5
B11 | 26
B12 | 37
B13 | 20
B14 | 6.6

What follows are binders tested against human Y2 receptor (human) (UniProt P49146) (assay: RBA: [125I]-PYY displacement, hY2R/CHO membranes).

Binder | IC50 Ratio (vs PYY(3-36))
B1 | 15
B2 | 26
B3 | 15
B4 | 50
B5 | 17
B6 | 19
B7 | 26
B8 | 15
B9 | 25
B10 | 7.2
B11 | 51
B12 | 76
B13 | 23
B14 | 12
